Test results: the supplement of paper PMC9732359
± gives the uncertainty stated by the source.

Test: protein stability index of a GFP-peptide fusion (yeast GPS) (PSI 1-4); higher = more stable; sorted into four equal gates, so the index is relative within each strain
Conditions: pdr5∆
Summary of the method: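 For each peptide, the protein stability index sums the read frequency in every gate after multiplying it by the gate number. Read frequencies came from plasmids that were PCR-amplified from each gate and Illumina-sequenced, with reads assigned to strains by barcodes. The gates were four equal bins of GFP/Cherry fluorescence ratio applied to mid-log yeast in leucine-free medium carrying a pooled library of tiled 17-residue yeast protein peptides fused downstream of GFP on a Cherry-expressing plasmid.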

Sequence	protein stability index
ILCIFEGEKCHPQDFGN [SEC65]	2.39 ± 0.066
ILDFGPGGASGLGVLTH [FAS1]	2.74 ± 0.092
ILDGQDVEENRSEFIES [YJR042W/NUP85]	3.2 ± 0.071

Same assay, conditions: san1∆

Sequence	protein stability index
HESYCLPMDTNLFKINS [YMR129W/POM152]	1.74 ± 0.13
HEYIRHLALEIGEVYND [RPN1]	2.49 ± 0.11
HFTEIKLNKVDKNELQQ [SIR3]	3 ± 0.04
HGINLQNKKNLKWVAVV [SSN2]	3.05 ± 0.057
HGQLKLSIQYMIQKVME [RPN5]	2.04 ± 0.15
HHDGKLWNLNAYRTDVI [PRP8]	3.04 ± 0.074
HIKKLLHQYYGDDESKI [FAS1]	3.07 ± 0.074
HILLTELLAYQFASPVR [FAS2]	1.81 ± 0.027
HINSILLARVIQMNNSL [SNF11]	1.96 ± 0.12
HIQVNQAPKQRRRTYRA [RPL17A]	2.38 ± 0.2
HKLVFVVRIKGINKIPP [RPL7A]	1.52 ± 0.094
HKMSMMAHRVKVIPYST [RPO21]	2.82 ± 0.079
HKSDVMSVDIDKKASMI [ASC1]	2.48 ± 0.082
HKVSSQSTNLNRSAKNS [YCS4]	2.38 ± 0.079
HLELYTSQYGTPSTETA [PRE3]	1.44 ± 0.084
HLGKGTMTMDVFNDAHV [RPN1]	2.06 ± 0.12
HLLLGFQVSNVISLGPN [YJL039C/NUP192]	2.08 ± 0.088
HLLRQTNAFLDSLTRAV [SNF2]	2.69 ± 0.044
HLSKSPADRPQGRRNSR [SIR4]	2.75 ± 0.059
HLVMRAISLGLLKGSID [RPN9]	1.58 ± 0.18
HNHDTGCDENDSTVNKS [YDL088C/ASM4]	3.3 ± 0.057
HNSHLSLNYKFTTNKSK [SRP21]	2.38 ± 0.076
HPLHELIIQYPPNNARR [ISW2]	2.73 ± 0.052
HPPFIKYACLAIRKNGQ [SIN4]	1.68 ± 0.065
HQNESSAASIPPQQTYH [RPN4]	2.53 ± 0.066
HQQQQQQQQQQQQQQQQ [SNF5]	2.88 ± 0.056

Sequence	protein stability index
HRASPADVSIKSILQEI [POP5]	2.95 ± 0.12
HRINMDKYHPGYFGKVG [RPL28]	3.24 ± 0.061
HSFAVLLHERKLLNDLA [NUT1]	2.46 ± 0.086
HSLSQAIKWDGSSGGVI [PRE3]	2.67 ± 0.21
HTEDESTKELKFSDIIQ [BRN1]	3.23 ± 0.22
HTIFSDVCKTRFNHLVT [YML031W/NDC1]	2.15 ± 0.051
HTSIRETLENGETRMKM [SMC2]	2.85 ± 0.12
HTVTNSPNPTLQPVIPG [SNF5]	2.53 ± 0.052
HVKRITKIAQSQTMAET [ECM29]	2.02 ± 0.061
HVLKKNPLKNKQVLLRL [RPL4A]	1.3 ± 0.13
HVLVGDLIKFSAETLSE [FAS1]	2.67 ± 0.1
IAAKLINSGLYSVLLES [YML103C/NUP188]	2.7 ± 0.076
IAAKTHILRISFLDRKR [SIN4]	1.84 ± 0.073
IAEGKSKQDASPKPYAV [RPL8B]	3.12 ± 0.06
IAINFTVNHSEKFPNDV [RPP1]	2.95 ± 0.051
IALLTLKESVEGEFNGD [PRE8]	2.64 ± 0.15
IASDGSYVNYRHMALLV [RPO21]	1.35 ± 0.067
IASEVLIKQVPRLLGPQ [RPL1A]	2.27 ± 0.15
IATGCKDGRIRIFKITE [YGL100W/SEH1]	2.21 ± 0.094
ICGYTRKEGPTIYYVDS [PRE2]	3.42 ± 0.042
ICNPVHKHREARGLTAT [RPL15B]	2.59 ± 0.092
ICYNKKTEYVLNDLNHL [REC8]	1.68 ± 0.21
IDATLKEELLRDGVLTV [RRP45]	2 ± 0.081
IDDKTQNDELTMGMRAL [DIS3]	2.87 ± 0.058
IDDVQTIKVVKRSMDAE [RPP1]	3.06 ± 0.039
IDHSDESNRQSVIVDSK [ESC2]	3.08 ± 0.093

Sequence	protein stability index
IDIPLDEQAFYNKDKAE [RPC37]	2.85 ± 0.24
IDNGAESSENEAEDDDN [RPC53]	3.15 ± 0.11
IDWASPEYGRIIASASY [YGL100W/SEH1]	3.09 ± 0.054
IDYLQRNDKTLELMDSK [POP1]	2.64 ± 0.25
IECFKPGDIVRAQVLSL [CSL4]	2.04 ± 0.2
IEDPNLSSNITFDGKPT [YMR153W/NUP53]	3.12 ± 0.043
IEEKLSSFSKKTLTEEV [YIL149C/MLP2]	3.03 ± 0.052
IEEQGDALQDVEESSEK [DPB4]	3.13 ± 0.059
IEIEDEKVSSVLSALEG [RPP2A]	2.81 ± 0.029
IEITNSNDLCSQIFDQL [SRB8]	2.69 ± 0.059
IEKCLKASELKLALGIA [RPN2]	3 ± 0.098
IELKTDWVRFLALALGI [RPN1]	1.41 ± 0.12
IEPQVINYLALNAANYN [ECM29]	2.15 ± 0.24
IEQSITKNIPITHRDLH [SSN8]	2.53 ± 0.046
IESNKLAGVLYESRNVA [RRP6]	3.07 ± 0.1
IESQNLDLIPHSSSVFK [SRB4]	2.55 ± 0.067
IETLDPALIRPGRIDRK [RPT2]	2.88 ± 0.24
IFKDLVTVFLFMLILAL [COB]	1.12 ± 0.067
IFRGSLIGCIPYSKNAV [YDL088C/ASM4]	2.14 ± 0.13
IGGRRFSEGTSADREIQ [RPT4]	1.98 ± 0.12
IGKDTFVTRKSRKRAKK [PRP8]	2.87 ± 0.078
IGLVKCTQMTDEGLLNM [GRR1]	2.81 ± 0.057
IGVVSLTNGVTEHVRQN [RRP6]	3.32 ± 0.099
IHEIDERLAKVNEMNDQ [NNF1]	1.63 ± 0.12
IHLLHDDRGPVLESIVA [BRR2]	3.24 ± 0.05
IHYSWSFILYYRRALQS [YML103C/NUP188]	1.26 ± 0.11

Sequence	protein stability index
IIDAKTRNEQTTIQTEK [MCD1]	2.91 ± 0.17
IIDEIKCIPKKGTVFQF [POP4]	1.86 ± 0.28
IIEKITDQILQLLKEDS [RRP45]	2.26 ± 0.14
IIFQQLLFWTDPRNLVN [YCG1]	3.1 ± 0.059
IILPLDNATLTELVDKA [SSN2]	2.6 ± 0.099
IIQLILWSIHPSRQFDH [SRB8]	1.59 ± 0.087
IIRPILGKVRFANYKLL [SRB4]	1.14 ± 0.1
IIRQLSELNEGNLSKRE [SRB8]	3.4 ± 0.1
IISRLNADFQKPWFATV [FAS1]	2.1 ± 0.071
IISTAIADSTHVKRITK [ECM29]	2.6 ± 0.1
IIVENSGTSGDEDVDVL [RPN2]	3.5 ± 0.075
IKCSQSSHLSDNDFIIN [POP5]	2.66 ± 0.059
IKEIINASKVISTPIIN [RPO31]	1.03 ± 0.18
IKIFELKLPADATTWRY [IRR1]	2.26 ± 0.08
IKKFAKLHMGTDDVRLA [RPL31A]	1.24 ± 0.064
IKKYASVVRVLVHTQIR [RPL3]	1.62 ± 0.11
IKLSLKDKTKNISAEII [SMC4]	3.04 ± 0.066
IKNISNRVGLTLDNIDD [ARP9]	3.16 ± 0.091
IKPKPLWSGKQILSVAI [RPO21]	1.4 ± 0.073
IKQQQQQQQQQNGQQPP [YML103C/NUP188]	2.48 ± 0.04
IKRMAIRNIVEAAAVRD [RPS26A]	1.83 ± 0.16
IKSGVAKLESLLENSVD [MTW1]	3.32 ± 0.055
IKTRDACPLDNQPWQLA [HRT1]	2.27 ± 0.073
IKWENAFVSVYSKNNPN [PRP8]	3.07 ± 0.053
ILCIFEGEKCHPQDFGN [SEC65]	2.14 ± 0.087
